The target of assay [1] is T1, human CD151 protein (human, UniProt P48509 1-253).
T1 construct: whole, on cells; in HT-29 cell lysate in the Western blots; also called PETA-3; SFA-1
T1 sequence (looked up): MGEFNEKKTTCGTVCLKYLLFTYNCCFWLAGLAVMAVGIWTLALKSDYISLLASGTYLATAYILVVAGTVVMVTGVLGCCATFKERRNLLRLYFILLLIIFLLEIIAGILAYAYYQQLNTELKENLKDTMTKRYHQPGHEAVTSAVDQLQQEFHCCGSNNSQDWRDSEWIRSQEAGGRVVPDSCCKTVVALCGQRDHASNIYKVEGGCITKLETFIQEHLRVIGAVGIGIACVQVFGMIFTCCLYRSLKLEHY
Description: flow cytometry, 10 µg/ml antibody on BxPC3 cells. A general note: A flow cytometer gives signals particle by particle.
Description: (§1) The flow cytometry analyses are carried out on 96-well plates. The undiluted hybridoma supernatants are added to 100000 PC3 cells previously introduced into the wells. After incubation for 20 minutes at +4° C. followed by washing, an Alexa488-labelled goat anti-mouse IgG polyclonal antibody (Molecular Probes, dilution to 1/500) is added. The fluorescence intensity (MFI) is determined with the aid of a cytofluorimeter after further incubation for 20 minutes at +4° C.
(§2) The isotypes of the antibodies produced were determined for each culture supernatant using a murine antibody isotyping kit (SBA clonotyping system, Southern Biotech), and then final characterisation was carried out by ELISA (extracellular loop EC2) and by flow cytometry on the murine line NIH 3T3 and the stable transfectant NIH 3T3-CD151, and then on human tumour lines of lung cancer A549, prostate cancer DU145 and pancreatic cancer BxPC3 under the conditions previously described. The antibody concentration of the supernatants was adjusted to 5 μg/ml for the ELISA and to 10 μg/ml for the flow cytometry analyses.

Assay [2] deals with T1, human CD151 protein. Put plainly: flow cytometry, undiluted hybridoma supernatant on PC3 cells.
Description: as §1
The target of assay [3] is T1, human CD151 protein. Description: flow cytometry, 10 µg/ml antibody on NIH3T3-CD151 transfectant cells.
Description: as §1, §2
Assay [4] addresses T1, human CD151 protein. Put plainly: saturation binding of 125I-labelled antibody to PC3 cells, 1 hour at 4°C, Scatchard analysis.
Description: The affinity of the 2 radiolabelled antibodies for their CD151 target on the cell surface was then measured for PC3 prostate cancer cells. The dissociation constant KD of the antibodies was determined by the method of Scatchard. […] After incubation, the total radioactivity associated with the cells (fixed radiolabelled antibody) was measured using a gamma counter. The non-specific fixing was determined, for each concentration tested, in the presence of an excess of non-radiolabelled antibody (×100). The specific fixing is calculated by subtracting the non-specific radioactivity from the total radioactivity.
Assay [5] deals with T1, human CD151 protein. Put plainly: flow cytometry, 10 µg/ml antibody on DU145 cells.
Description: as §1, §2
The target in assay [6] is T2, recombinant extracellular loop EC2 of human CD151 (amino acids 130 to 221, C-terminal Poly-His tail) (human, UniProt P48509 130-221).
T2 construct: range 130-221; Expressed in soluble form in the periplasm of E. coli from pET22b and purified by IMAC; also called recombinant EC2; recombinant EC2 loop; not shown: Poly-His tail at the C-terminal position
T2 sequence (looked up): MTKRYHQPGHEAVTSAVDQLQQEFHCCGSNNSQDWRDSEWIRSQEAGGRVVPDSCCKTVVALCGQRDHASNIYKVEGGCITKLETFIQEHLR
Put plainly: ELISA, clone supernatant at 5 µg/ml antibody on coated recombinant EC2 loop. On the technique in general: In an ELISA, binding on a coated surface is turned into a signal by an enzyme label.

In assay [7] the target is T1, human CD151 protein. Put plainly: flow cytometry, 10 µg/ml antibody on A549 cells.
Description: as §1, §2
Assay [8] addresses T2, recombinant extracellular loop EC2 of …. Put plainly: ELISA, undiluted hybridoma supernatant on coated recombinant EC2 loop (5 µg/ml).
Description: For the ELISA, 96-well plates are sensitised for 1 night at +4° C. with the recombinant extracellular loop EC2 at 5 μg/ml in PBS. After washing with PBS, the wells are saturated with 0.5% gelatin solution in PBS for 1 hour at 37° C. and then washed again with PBS. The hybridoma culture supernatants are evaluated without dilution (incubation for 1 hour at 37° C.). The antibodies fixed to the immobilised EC2 loop are detected by successive incubation with a peroxidase-conjugated goat anti-mouse IgG polyclonal antibody (Jackson/USA, dilution to 1/5000, 1 hour at 37° C.) and then with a peroxidase substrate (TMB, Interchim/France, 10 minutes at ambient temperature). The reaction is stopped by addition of 1M sulfuric acid and the optical density (OD) is measured at 450 nm.
For assay [9] the target is unchanged. Put plainly: competition ELISA on coated recombinant EC2; competitor murine 214B2 at 80 ng/ml, detected with anti-mouse IgG.
Description: (§3) Briefly, 96-well ELISA plates were coated with recombinant EC2 at 5 μg/ml in PBS overnight at 4° C. […] For control experiments, no murine antibody was added. Horseradish peroxidase-conjugated polyclonal goat anti-mouse IgG was added at a 1/5000 dilution in PBS and incubated for 1 h at 37° C. After incubation with the peroxidase substrate TMB for 10 min at room temperature, the reaction was stopped with 1 M sulfuric acid and the optical density at 450 nm was measured.
The target is the same in assay [10]. Description: competition ELISA on coated recombinant EC2; competitor murine 203B6 at 80 ng/ml, detected with anti-mouse IgG.
Description: as §3

B1: murine monoclonal antibody 214B2 (hybridoma CNCM I-3919) (antibody, mouse IgG1, V domains shown)
VH: QVQLQQPGSVLVRPGASVKLSCKASGYTFTSSSMHWAKQRPGQGLEWIGEIHPNSGNTNNNEKFKGKATLTVDTSSSTAYVDLSSLSSEDSAVYYCARARSFYYAMDCWGQGTSVTVSS
VL: NIVMTQSPKSMSMSVGERVTLSCKASENVGTYVSWYQQKPEQSPKLLIYGASNRYTGVPDRFTGSGSATDFTLTISSVQAEDLADYHCGQTYSFPYTFGGGTKLEIK
notes: also called 214B2 cl1A; [125I]-214B2
With B1, the MFI with human CD151 protein [1] was found to be 849 MFI; with human CD151 protein [2], 1000 MFI; with human CD151 protein [3] it was 748 MFI; with human CD151 protein [5], 1330 MFI; with human CD151 protein [7], 820 MFI. Moreover, the affinity in the assay with human CD151 protein [4], expressed as Kd, was 6.38 nM. Besides, the “OD at 450 nm” value in assay [6] is 2.48 OD at 450 nm. For the same molecule, the “OD 450 nm” value in [8] came to 0.684 OD 450 nm.

B2: chimeric antibody c214B2[IgG1] (antibody, V domains shown)
VH: QVQLQQPGSVLVRPGASVKLSCKASGYTFTSSSMHWAKQRPGQGLEWIGEIHPNSGNTNNNEKFKGKATLTVDTSSSTAYVDLSSLSSEDSAVYYCARARSFYYAMDCWGQGTSVTVSS
VL: NIVMTQSPKSMSMSVGERVTLSCKASENVGTYVSWYQQKPEQSPKLLIYGASNRYTGVPDRFTGSGSATDFTLTISSVQAEDLADYHCGQTYSFPYTFGGGTKLEIKR
notes: Variable domains of murine 214B2 fused to human Ckappa and human IgG1 constant domains; made in HEK293/EBNA cells; VL' and 'IgG1 Chim
Consider B2, for which the IC50 in assay [9] stood at 0.69 µg/mL.

B3: murine monoclonal antibody 205H8 (hybridoma CNCM I-3921) (antibody, mouse IgG3, V domains shown)
VH: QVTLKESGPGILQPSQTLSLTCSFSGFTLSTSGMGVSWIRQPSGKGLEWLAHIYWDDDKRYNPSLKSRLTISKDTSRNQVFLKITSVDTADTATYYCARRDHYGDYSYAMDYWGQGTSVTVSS
VL: DIVMTQSQKFMSTSEGDRVSITCKASQNVGIAVAWYQQKPGQSPKLLIYSASNRYTGVPDRFTGSGSGTDFTLTISNMQSEDLADYFCQQYSSNPTFGAGTKLELK
notes: also called 205H8 cl1A
On to B3, for which the MFI with human CD151 protein [1] is 350 MFI; with human CD151 protein [2], 595 MFI; with human CD151 protein [3] it was 332 MFI; with human CD151 protein [5] it was 584 MFI; in the assay with human CD151 protein [7] it was 388 MFI. In assay [6], the “OD at 450 nm” value stood at 1.84 OD at 450 nm. For the same molecule, the “OD 450 nm” value in assay [8] is 0.649 OD 450 nm.

B4: murine monoclonal antibody 203B6 (hybridoma CNCM I-3920) (antibody, mouse IgG1, V domains shown)
VH: EVKLVESGGGLVQPGGSLKLSCAASGFTFSTYTMSWVRQTPEKRLEWVAYISSGGGTTYYPDTVKGRFTISRDNARNTLYLQMNSLKSEDTAMYYCATPRIGTGFAYWGQGTLVTVSA
VL: DIVLSQSPASLALSLGQRATISCRASASVEYYGTSLMHWYQQKPGQPPKLLIYEASNVESGVPARFSGSGSGTDFSLNIHPVEEDDLAIYFCQQSRKAPYTFGGGTKLEIK
notes: also called 203B6 cl1A; [125I]-203B6
For the molecule B4, the MFI with human CD151 protein [1] came to 768 MFI; with human CD151 protein [2], 975 MFI; in the assay with human CD151 protein [3], 540 MFI; with human CD151 protein [5], 860 MFI; with human CD151 protein [7], 675 MFI. For the same molecule, the dissociation constant (Kd) in the assay with human CD151 protein [4] came out at 12.8 nM. Besides, the “OD at 450 nm” value in [6] was determined as 2.22 OD at 450 nm. In addition, the “OD 450 nm” value in [8] came to 1.13 OD 450 nm.

B5: chimeric antibody c203B6[IgG1] (antibody, V domains shown)
VH: EVKLVESGGGLVQPGGSLKLSCAASGFTFSTYTMSWVRQTPEKRLEWVAYISSGGGTTYYPDTVKGRFTISRDNARNTLYLQMNSLKSEDTAMYYCATPRIGTGFAYWGQGTLVTVSA
VL: DIVLSQSPASLALSLGQRATISCRASASVEYYGTSLMHWYQQKPGQPPKLLIYEASNVESGVPARFSGSGSGTDFSLNIHPVEEDDLAIYFCQQSRKAPYTFGGGTKLEIKR
notes: Variable domains of murine 203B6 fused to human Ckappa and human IgG1 constant domains; made in HEK293/EBNA cells; VL' and 'IgG1 Chim
With B5, the IC50 in [10] came to 0.71 µg/mL.

B6: murine monoclonal antibody 211F3 (hybridoma CNCM I-3918) (antibody, mouse IgG1, V domains shown)
VH: EVKLVESGGDLVQPGGSLKLSCAASGFTFSTYTMSWVRQTPEKRLEWVAYISSGGVTTYYPDTIKGRFTISRDNAKNTLFLQMNSLKSEDTAMYYCTSPRTGTGFAYWGQGTLVTVSA
VL: DIVLTQSPASLALSLGQRATISCRASASVDYYGTSLMQWYQQKPGQPPKLLIYEASNVESGVPARFSGSGSGTDFSLNIHPVEEDDLAIYFCQQSRKAPYTFGGGTKLEIK
notes: also called 211F3 cl1A
As for B6, the MFI with human CD151 protein [1] came to 536 MFI; with human CD151 protein [2], 936 MFI; with human CD151 protein [3], 556 MFI; with human CD151 protein [5] it was 524 MFI; with human CD151 protein [7], 481 MFI. Further, the “OD at 450 nm” value in assay [6] amounted to 2.3 OD at 450 nm. Further, the “OD 450 nm” value in [8] worked out at 0.959 OD 450 nm.

As usually defined, the Kd is the free concentration of one partner at which half of the binding sites on the other are occupied at equilibrium, for simple one-to-one binding. Low values mean tighter binding, high ones weaker binding. The term IC50 denotes the point on the concentration scale where inhibition reaches its midpoint.
